Reference: publication PMC7145567

Target: HMGA1a, non-phosphorylated (wt) (UniProt P17096 1-107)
Experiment: ITC

Chain of HMGA1a, non-phosphorylated (wt) (P17096 whole entry): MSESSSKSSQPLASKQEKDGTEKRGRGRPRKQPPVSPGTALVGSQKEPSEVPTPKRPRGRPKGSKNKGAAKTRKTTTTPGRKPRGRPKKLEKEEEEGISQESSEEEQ

B1: PRD2 element of NFkB promoter (dsDNA)
DNA 1: GGGAAATTCCTC
DNA 2: GAGGAATTTCCC
**Q.** B1 was tested. Which Kd did it give?
**A.** The Kd was ~100 nM.
